{"source": "patent US8663616B2", "about": "“Enzymatic peracid generation for use in oral care products” (E I du Pont de Nemours and Company, priority 2010, dated 2014)", "key": {"[1]": {"assay": "Peracetic acid generation from hydroxyapatite bound CE-7 perhydrolase fusions (Example 8)", "assay_type": "biochemical", "conditions": "hydroxyapatite particles exposed to 10 μM enzyme, washed; 100 mM triacetin, 100 mM H2O2, 30 min, 37° C.; no enzyme 30-118.8", "outline": "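Enzyme (10 μM) bound to washed hydroxyapatite particles in 10 mM phosphate pH 7.2 for 30 min, washed three times, then given 100 mM triacetin plus 100 mM H2O2 in 100 mM phosphate pH 7.2, 30 min, 37 °C. Peracetic acid read by ABTS oxidation at 405 nm against standard curve; no-enzyme control.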"}, "[2]": {"assay": "Peracetic acid from C277S CXH fusions exposed to hydroxyapatite discs (Example 9)", "conditions": "no enzyme control subtracted"}, "[3]": {"assay": "Peracetic acid generated in solution by C277S CXH fusions (Example 9)", "conditions": "0.5 μM enzyme, sarkosyl buffer, 100 mM triacetin, 100 mM H2O2, pH 7.2, 10 min, 37° C."}, "[4]": {"assay": "Peracetic acid generated in solution by CE-7 perhydrolase fusions (Example 8)", "assay_type": "biochemical", "conditions": "0.5 μM enzyme, 100 mM triacetin, 100 mM H2O2, pH 7.2, 10 min, 37° C.; no enzyme 378.9", "procedure": "The detection of peracetic acid followed the method described in Pinkernell et. al. (Analyst, 1997, 122, 567) using colorimetric detection of 2,2′-azino-bis(3-ethylbenzothiazoline(-6-sulfonate (ABTS) oxidation by peracetic acid. Following the formation of peracetic acid with the addition of triacetin and hydrogen peroxide, 90 μL of solution was added to 10 μL of 0.1 M H3PO4 in a well plate. 50 μL of 1 M acetic acid, 50 μL of 0.5 g/L ABTS and 50 μL of 0.002 g/L of KI was added. The solution was allowed to develop for 5 min. The absorbance of the solution was measured at 405 nm using a microplate reader. The peracetic acid concentration was calculated based on a standard curve developed simultaneously using peracetic acid reagent solution.\nPerhydrolase enzymes listed in Table 6 were assessed for solution activities. The method to measure the perhydrolase in solution activity was described in Example 7 by making a 500 μL solution containing 0.5 μM of enzyme, 100 mM triacetin, 100 mM H2O2 in 100 mM phosphate buffer, pH 7.2. The solution was mixed and incubated for 10 min at 37° C. A 10 μL aliquot was removed and diluted for detection as described in Example 7. Peracetic acid concentration was determined using a standard curve generated with a stock solution of peracetic acid (Aldrich). The experiment was also performed with no enzyme present as a control."}, "[5]": {"assay": "Two-step bleaching of coffee-tea stained bovine enamel, repeated rounds (Example 17)", "parameters": "scale not given here", "conditions": "for Whiteness Index Rd1: after round 1 of the 2-step process; for Whiteness Index Rd2: after round 2; for Whiteness Index Rd3: after round 3; for Whiteness Index Rd4: after round 4; for Whiteness Index Rd5: after round 5; for ΔWI: before to round 5; for Whiteness Index Before: two-step: 20 μM enzyme (or buffer) 10 min 37° C., rinsed, then 100 mM triacetin, 100 mM H2O2 10 min 37° C., before treatment", "procedure": "Bovine enamel incisors were prepared as indicated in Example 1. The stained enamel blocks were embedded in SILLY PUTTY® (Crayola LLC, Easton, Pa.) filled well, a 24-well plate to protect the dentin backside from solution exposure. A solution of 20 μM of each enzyme in 10 mM phosphate buffer, pH 7.2 was prepared and 500 μL of the enzyme solution was added to each enamel blocks and incubated for 10 min at 37° C. The enamel block was then rinsed three times with an additional 500 μL of buffer each time. The enamel blocks were transferred and embedded in a fresh putty well for the whitening process. A solution (200 μL) containing 100 mM phosphate buffer, 100 mM triacetin, 100 mM H2O2, pH 7.2 was added to the enamel and incubated for 10 min at 37° C. The enamel block was removed from the well using forceps, then rinsed and stored in a 1.5 mL of water filled well for color measurements. The 2-step process was repeated 5 times (50 min total). Each sample data point represents 2 repeats of independent enamel blocks."}, "[6]": {"assay": "Two-step bleaching of coffee-tea stained bovine enamel (Example 16)", "procedure": "Bovine enamel incisors were prepared as indicated in Example 1. The stained enamel blocks were embedded in a 48 well plate to protect the dentin backside from solution exposure. A solution of 10 μM of each enzyme in 10 mM phosphate buffer, pH 7.2 was prepared and 500 μL of solution was incubated with each enamel substrate for 60 min. The enzyme solution was removed and each well was rinsed three times with an additional 500 μL of buffer. The enamel blocks were placed in a fresh well for the whitening process. A solution with a final concentration of 40 mM triacetin, 100 mM H2O2 in 50 mM phosphate pH 7.2 buffer was freshly prepared and 500 μL of solution was added to each enamel block. Over the course of 1 hr the enamel blocks were removed and a color measurement was obtained and then each was returned to the solution in the well plate. The whiteness index for each sample was monitored."}}}
{"molecule": "EZ-7: C277S-link1-DenP308-H6, SEQ ID NO: 429 (protein) MAFFDLPLEELKKYRPERYEEKDFDEFWEETLAESEKFPLDPVFERMESHLKTVEAYDVTFSGYRGQRIKGWLLVPKLEEEKLPCVVQYIGYNGGRGFPHDWLFWPSMGYICFVMDTRGQGSGWLKGDTPDYPEGPVDPQYPGFMTRGILDPRTYYYRRVFTDAVRAVEAAASFPQVDQERIVIAGGSQGGGIALAVSALSKKAKALLCDVPFLCHFRRAVQLVDTHPYAEITNFLKTHRDKEEIVFRTLSYFDGVNFAARAKIPALFSVGLMDNISPPSTVFAAYNYYAGPKEIRIYPYNNHEGGGSFQAVEQVKFLKKLFEKGGPGSGGAGSPGSAGGPGSTKPPRTPTANTSRPHHNFGSGGGGSPHHHHHH", "values": [{"measurement": "Peracetic acid (ppm)", "setting": "[1]", "result": 4453.7, "unit": "ppm"}, {"measurement": "Peracetic acid (ppm) Exposed to Hydroxyapatite, Disc", "setting": "[2]; disc-bound enzyme, 100 mM triacetin, 100 mM H2O2, 30 min, 37° C.", "result": 2017, "unit": "ppm"}, {"measurement": "Peracetic acid (ppm) Exposed to Hydroxyapatite, Supernatant", "setting": "[2]; unbound enzyme in supernatant after 10 μM enzyme on disc", "result": 4864, "unit": "ppm"}, {"measurement": "Peracetic acid (ppm) In Solution", "setting": "[3]", "result": 5471, "unit": "ppm"}, {"measurement": "PAA (ppm)", "setting": "[4]", "result": 4877.2, "unit": "ppm"}, {"measurement": "Whiteness Index Rd1", "setting": "[5]", "result": "−106.7"}, {"measurement": "Whiteness Index Rd2", "setting": "[5]", "result": "−96.0"}, {"measurement": "Whiteness Index Rd3", "setting": "[5]", "result": "−88.7"}, {"measurement": "Whiteness Index Rd4", "setting": "[5]", "result": "−85.7"}, {"measurement": "Whiteness Index Rd5", "setting": "[5]", "result": "−76.6"}, {"measurement": "ΔWI", "setting": "[5]", "result": 44.2}, {"measurement": "Whiteness Index Before", "setting": "[5]", "result": "−120.8"}]}
{"molecule": "EZ-1: Thermotoga maritima acetyl xylan esterase variant C277S, untargeted perhydrolase, SEQ ID NO: 424 (protein, listed as Thermotoga maritima) MAFFDLPLEELKKYRPERYEEKDFDEFWEETLAESEKFPLDPVFERMESHLKTVEAYDVTFSGYRGQRIKGWLLVPKLEEEKLPCVVQYIGYNGGRGFPHDWLFWPSMGYICFVMDTRGQGSGWLKGDTPDYPEGPVDPQYPGFMTRGILDPRTYYYRRVFTDAVRAVEAAASFPQVDQERIVIAGGSQGGGIALAVSALSKKAKALLCDVPFLCHFRRAVQLVDTHPYAEITNFLKTHRDKEEIVFRTLSYFDGVNFAARAKIPALFSVGLMDNISPPSTVFAAYNYYAGPKEIRIYPYNNHEGGGSFQAVEQVKFLKKLFEKG", "values": [{"measurement": "retention on hydroxyapatite and enamel (in words)", "setting": "[6]; 2-step process", "result": "poor retention on hydroxyapatite and enamel"}, {"measurement": "Whiteness Index 0 min", "setting": "[6]; two-step: 10 μM enzyme 60 min, rinsed, then 40 mM triacetin, 100 mM H2O2, pH 7.2, before step 2", "result": "−152.7"}, {"measurement": "ΔWI", "setting": "[6]; two-step, 0 to 60 min", "result": 56.6}, {"measurement": "Whiteness Index 5 min", "setting": "[6]; two-step, 5 min in triacetin/H2O2", "result": "−126.2"}, {"measurement": "Whiteness Index 15 min", "setting": "[6]; two-step, 15 min in triacetin/H2O2", "result": "−138.9"}, {"measurement": "Whiteness Index 30 min", "setting": "[6]; two-step, 30 min in triacetin/H2O2", "result": "−144.8"}, {"measurement": "Whiteness Index 45 min", "setting": "[6]; two-step, 45 min in triacetin/H2O2", "result": "−107.3"}, {"measurement": "Whiteness Index 60 min", "setting": "[6]; two-step, 60 min in triacetin/H2O2", "result": "−96.1"}, {"measurement": "Whiteness Index Rd1", "setting": "[5]", "result": "−129.5"}, {"measurement": "Whiteness Index Rd2", "setting": "[5]", "result": "−129.5"}, {"measurement": "Whiteness Index Rd3", "setting": "[5]", "result": "−129.2"}, {"measurement": "Whiteness Index Rd4", "setting": "[5]", "result": "−125.1"}, {"measurement": "Whiteness Index Rd5", "setting": "[5]", "result": "−122.1"}, {"measurement": "ΔWI", "setting": "[5]", "result": 17.9}, {"measurement": "Whiteness Index Before", "setting": "[5]", "result": "−140.0"}]}
